Experimental findings from publication PMC8001305 are described below.

In data set [1] the test system is 2LTRZFP-GFP (designed six-finger zinc finger protein fused to GFP). Nature of the data set: competition ELISA. The note with it: BLI (BLItz, SA tips): 10 mM Tris-HCl pH 7.5, 90 mM KCl, 1 mM MgCl2, 90 uM ZnSO4, 5 mM DTT, 0.5 mM PMSF, temperature not stated, IN: 1:5 IN reaction buffer …. In general terms: In an ELISA, binding on a coated surface is turned into a signal by an enzyme label.

For data set [2] the test system is unchanged. Kind of data set: competition BLI. The note with it: BLI (BLItz, SA tips): 10 mM Tris-HCl pH 7.5, 90 mM KCl, 1 mM MgCl2, 90 uM ZnSO4, 5 mM DTT, 0.5 mM PMSF, temperature not stated; IN: 1:5 IN reaction buffer ….
Data set [3] addresses HIV-1 integrase (IN) (HIV-1) (UniProt P12497). Nature of the data set: BLI. The conditions noted are these: BLI (BLItz, SA tips): 10 mM Tris-HCl pH 7.5, 90 mM KCl, 1 mM MgCl2, 90 uM ZnSO4, 5 mM DTT, 0.5 mM PMSF, temperature not stated; IN: 1:5 IN reaction buffer ….
Data set [4] relates to 2LTRZFP-GFP (designed six-finger zinc finger protein fused to GFP). Kind of data set: BLI. The note with it: BLI (BLItz, SA tips): 10 mM Tris-HCl pH 7.5, 90 mM KCl, 1 mM MgCl2, 90 uM ZnSO4, 5 mM DTT, 0.5 mM PMSF, temperature not stated; IN: 1:5 IN reaction buffer ….

As a reminder, the Kd is the equilibrium constant for the complex coming apart. Higher therefore signals weaker binding. “AAATCTCTAGCAGTACTGGATGGGCTAATT (double strand) [ds2LTR (30 bp HIV-1 2-LTR circle junction)]” registered a binding signal in data set [1] of 62 % inhibition. For the same sequence, in data set [2], the binding signal (nm BLI signal (1.2 without competitor)) stood at 0.45. In data set [3], this sequence had an equilibrium dissociation constant (Kd) of 75 nM and a binding signal (nm BLI signal (0.55 without 2LTRZFP-GFP)) of 0.47. This sequence returned a Kd in data set [4] of 40 nM.

In data set [1] (2 uM dsNeg as competitor against immobilized ds2LTR, OD 1.0 vs 1.3 uninhibited), “TGACAGTGCTAGCGTATCATCTAGTCGACG (double strand) [dsNeg (30 bp irrelevant DNA)]” had an inhibition of binding to immobilized ds2LTR of 22 % inhibition. Also, the binding signal (nm BLI signal (1.2 without competitor)) in data set [2] was 1.
